{"source": "the supplement of paper PMC9732359", "note": "± gives the uncertainty stated by the source.", "data": [{"test": "protein stability index of a GFP-peptide fusion (yeast GPS) (PSI 1-4); higher = more stable; sorted into four equal gates, so the index is relative within each strain", "settings": "ubr1∆", "in_short": "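Tiled yeast protein peptides of 17 residues were each joined downstream of GFP, on plasmids that also express Cherry. The pooled library was maintained in yeast, and mid-log cultures in leucine-free medium were sorted into four equal gates on the GFP/Cherry ratio. Plasmids from every gate were amplified by PCR and sequenced on Illumina, with barcodes linking reads to strains. The protein stability index of a peptide is its gate-number-weighted read frequency summed over the gates.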", "values": [{"sequence": "TGPFKVNGVPLRRVNAR [RPL6B]", "protein stability index": "2.72 ± 0.061"}, {"sequence": "TGWNAKTYGISDDIISQ [FAS2]", "protein stability index": "1.2 ± 0.091"}, {"sequence": "TGYPDEPPAGVALPPGS [CYT1]", "protein stability index": "2.95 ± 0.067"}, {"sequence": "THEQWSNIQRNVLFLRL [SRP72]", "protein stability index": "2.45 ± 0.041"}, {"sequence": "THHTDIIPIVDYAQLDH [ARP9]", "protein stability index": "2.61 ± 0.031"}, {"sequence": "THVANFMNDAAADVSAV [YML103C/NUP188]", "protein stability index": "2.84 ± 0.049"}, {"sequence": "TIEDIAVAITRASKLKI [RPO31]", "protein stability index": "1.97 ± 0.06"}, {"sequence": "TINKAVQVKVLGKYEFS [ESC2]", "protein stability index": "2 ± 0.076"}, {"sequence": "TIPILESDSKATLQSNE [DSN1]", "protein stability index": "2.67 ± 0.081"}, {"sequence": "TIRQIILPDSLNLDSLL [SMD1]", "protein stability index": "2.7 ± 0.046"}, {"sequence": "TIRTRKVISNPLLARKQ [RPS24A]", "protein stability index": "1.87 ± 0.089"}, {"sequence": "TIVTGGGSGNGDDVVND [RPP1]", "protein stability index": "3.54 ± 0.21"}, {"sequence": "TIYNNIREGQNQKIPDN [SIR3]", "protein stability index": "3.02 ± 0.045"}, {"sequence": "TKANDKNESATINEMMK [FAS2]", "protein stability index": "3.11 ± 0.057"}, {"sequence": "TKEELESDGRMFIEEPT [SRP54]", "protein stability index": "2.71 ± 0.055"}, {"sequence": "TKFFDDAKSTPLRLRLY [RPN9]", "protein stability index": "2.89 ± 0.17"}, {"sequence": "TKGDSTPVQPDLSVTPQ [YAR002W/NUP60]", "protein stability index": "3.098 ± 0.024"}, {"sequence": "TKGDTSKATGAPSANQG [RTT102]", "protein stability index": "3.24 ± 0.059"}, {"sequence": "TKGENYQLVKTLGEQLI [FAS2]", "protein stability index": "3.27 ± 0.15"}, {"sequence": "TKIIMATNRPDTLDPAL [RPT4]", "protein stability index": "3.12 ± 0.1"}, {"sequence": "TKLIISGQLNFEIDGDV [PCI8]", "protein stability index": "2.23 ± 0.055"}, {"sequence": "TKWGLINYQVDSKLLPK [SWI3]", "protein stability index": "2.55 ± 0.077"}, {"sequence": "TKYERARILGTRALQIS [RPO26]", "protein stability index": "1.21 ± 0.13"}, {"sequence": "TLELSAQFRVPRYHSKN [SWP82]", "protein stability index": "2.74 ± 0.041"}, {"sequence": "TLGVVGKSEKLSLLLVE [SKI6]", "protein stability index": "2.96 ± 0.049"}, {"sequence": "TLHLVLRLRGGGKKRKK [RPS31]", "protein stability index": "2.86 ± 0.14"}, {"sequence": "TLSLPDSQDYILSINAI [SMC1]", "protein stability index": "2.87 ± 0.044"}, {"sequence": "TLTASPDGTLIASAGKD [ASC1]", "protein stability index": "3.14 ± 0.063"}, {"sequence": "TLVHTRVKIANTSAATV [SSN2]", "protein stability index": "2.57 ± 0.035"}, {"sequence": "TLVNKSTGLKSASDALK [RPS1A]", "protein stability index": "3.23 ± 0.074"}, {"sequence": "TLYIGNTANGRPPVKAI [ECM29]", "protein stability index": "1.47 ± 0.11"}, {"sequence": "TMADAVRELGILCIFEG [SEC65]", "protein stability index": "1.45 ± 0.062"}, {"sequence": "TMRRQKLTILQEGIEAI [RET1]", "protein stability index": "2.96 ± 0.062"}, {"sequence": "TMTISHLLLGFQVSNVI [YJL039C/NUP192]", "protein stability index": "1.77 ± 0.034"}, {"sequence": "TNDDSIKNLTVQLSPSN [RGR1]", "protein stability index": "2.58 ± 0.05"}, {"sequence": "TNEFVGSPSLTSPQYIP [NUT1]", "protein stability index": "2.93 ± 0.032"}, {"sequence": "TNGKPDMAILERYYELA [ARP7]", "protein stability index": "3.19 ± 0.06"}, {"sequence": "TNLISKISLLRPSFQNN [SWP82]", "protein stability index": "2.72 ± 0.064"}, {"sequence": "TNNEQLQQELATTQDQV [NUT2]", "protein stability index": "3.19 ± 0.038"}, {"sequence": "TNSSILLGKILPREEHD [RRP6]", "protein stability index": "1.58 ± 0.11"}, {"sequence": "TNSVRLFEVNPSQTLFS [SRP21]", "protein stability index": "2.56 ± 0.047"}, {"sequence": "TNVLNFIKLQKIDIIEL [FAS1]", "protein stability index": "2.05 ± 0.044"}, {"sequence": "TNVPKAKKRKTLILIQN [SIR3]", "protein stability index": "1.4 ± 0.1"}, {"sequence": "TNVRLYSLLLASKGIDR [ECM29]", "protein stability index": "3.33 ± 0.069"}, {"sequence": "TNYYLTTARNDLGVVFA [CSL4]", "protein stability index": "2.82 ± 0.072"}, {"sequence": "TPLFPIDRNSTILYLNV [IRR1]", "protein stability index": "2.69 ± 0.098"}, {"sequence": "TPQQLQMIQQRHQQLLR [SNF5]", "protein stability index": "1.74 ± 0.045"}, {"sequence": "TPSTSSNGEFIPHIFYS [CSE2]", "protein stability index": "2.82 ± 0.048"}, {"sequence": "TPYNIDRLTQLVRNGPN [RPO21]", "protein stability index": "3.18 ± 0.2"}, {"sequence": "TQEEVELPLEDFKAKYC [RPB5]", "protein stability index": "3.28 ± 0.071"}, {"sequence": "TQEIRPVNTGVLHVSAK [RRP40]", "protein stability index": "3.01 ± 0.11"}, {"sequence": "TQQPGTNSHYNNTNTDN [SNF2]", "protein stability index": "3.204 ± 0.028"}, {"sequence": "TQTYMQMIELNRQICLV [GRR1]", "protein stability index": "1.25 ± 0.047"}, {"sequence": "TRAMEYLKFRELPAGQN [RPB2]", "protein stability index": "3.02 ± 0.13"}, {"sequence": "TRELAEEGYSGVEVRVT [RPS3]", "protein stability index": "2.86 ± 0.04"}, {"sequence": "TRFEVELEFIQSLANIQ [SOH1]", "protein stability index": "2.5 ± 0.058"}, {"sequence": "TRIAGVVYHPSNNELVR [RPS8A]", "protein stability index": "2.652 ± 0.013"}, {"sequence": "TRIQYVDFACCTNLTNR [GRR1]", "protein stability index": "2.36 ± 0.049"}, {"sequence": "TRKAVRPQKLRASLVPG [RPL6B]", "protein stability index": "1.83 ± 0.046"}, {"sequence": "TRNEQTTIQTEKVRPTP [MCD1]", "protein stability index": "3 ± 0.031"}, {"sequence": "TRNITDYSINSRYEPKV [PRE7]", "protein stability index": "2.88 ± 0.047"}, {"sequence": "TRSHEYGRKSFRNNKND [REC8]", "protein stability index": "3.3 ± 0.067"}, {"sequence": "TRSLKYGKLRNGMFCQV [RRP4]", "protein stability index": "1.07 ± 0.12"}, {"sequence": "TRSQFCLNTQRGDSTET [RRI1]", "protein stability index": "3 ± 0.076"}, {"sequence": "TRVEGSGGGDSEVQRTM [RPT6]", "protein stability index": "3.19 ± 0.051"}, {"sequence": "TRYELYIKNILEAPVKS [YLR335W/NUP2]", "protein stability index": "1.56 ± 0.057"}, {"sequence": "TRYMFQRDFRKHGAVHL [RPL21A]", "protein stability index": "2.44 ± 0.092"}, {"sequence": "TSASNTSMNGVHNTVAA [SNF5]", "protein stability index": "2.9 ± 0.047"}, {"sequence": "TSEEQTKFLAKNGVIPE [SWP82]", "protein stability index": "3.3 ± 0.098"}, {"sequence": "TSFGQPQSAPNQMGMGT [YOR098C/NUP1]", "protein stability index": "2.41 ± 0.17"}, {"sequence": "TSKTVSNQFKRSLATAV [COR1]", "protein stability index": "1.8 ± 0.056"}, {"sequence": "TSLKKIKDEIDDPFTKI [SWI1]", "protein stability index": "3.49 ± 0.13"}, {"sequence": "TSTKPSFSFGAPESMKS [YOR098C/NUP1]", "protein stability index": "3.1 ± 0.046"}, {"sequence": "TSTVNRLNTVTRVHQLM [MCD1]", "protein stability index": "2.57 ± 0.094"}, {"sequence": "TSVENEGPVANLKDYEL [REC8]", "protein stability index": "3.16 ± 0.076"}, {"sequence": "TSVQEKELMLQSKKLIE [YIL149C/MLP2]", "protein stability index": "2.91 ± 0.063"}, {"sequence": "TTDNNNSGNSNSNSNQQ [RPT1]", "protein stability index": "3.36 ± 0.2"}, {"sequence": "TTILSFSSPAALMKTLI [NUT1]", "protein stability index": "1.78 ± 0.054"}, {"sequence": "TTPEKPEETPLEELAET [FAS2]", "protein stability index": "3.5 ± 0.051"}, {"sequence": "TTQIDLFRIFSMSEEFK [BRR2]", "protein stability index": "3.12 ± 0.073"}, {"sequence": "TTSVDVMLKGIVTALLE [SRP54]", "protein stability index": "1.11 ± 0.04"}, {"sequence": "TTVFFSRQKSGLFDSFT [YML031W/NDC1]", "protein stability index": "1.55 ± 0.048"}, {"sequence": "TTVQVAEEAIVNAMRVL [PRE4]", "protein stability index": "2.54 ± 0.09"}, {"sequence": "TVAVLPPNWKYESATAS [RPS13]", "protein stability index": "1.97 ± 0.028"}, {"sequence": "TVEPVYQMHIKTSKDIA [FAS1]", "protein stability index": "1.35 ± 0.065"}, {"sequence": "TVINEQQREAVRQLYKG [RPL35A]", "protein stability index": "3.31 ± 0.079"}, {"sequence": "TVKRGAAGIWTCSCCKK [RPL43A]", "protein stability index": "1.94 ± 0.062"}, {"sequence": "TVLETLLSDVNQNQRNV [SMC3]", "protein stability index": "3.02 ± 0.082"}, {"sequence": "TVQSERAFQKQPHIFNN [RPS11A]", "protein stability index": "2.79 ± 0.034"}, {"sequence": "TVSRAYGGSRCANCVKE [RPL34A]", "protein stability index": "2.19 ± 0.043"}, {"sequence": "TVWSANFEYDLSEYDAI [YOR098C/NUP1]", "protein stability index": "3.06 ± 0.1"}, {"sequence": "TVYISSIALLKMLKHGR [RPN11]", "protein stability index": "2.79 ± 0.066"}, {"sequence": "TVYSSEQYIQELDKRED [SMC3]", "protein stability index": "3.47 ± 0.25"}, {"sequence": "TWRTQLAASEIGISIVG [ECM29]", "protein stability index": "1.88 ± 0.037"}, {"sequence": "TYDENDDFFKELAKEAK [ESC2]", "protein stability index": "3.08 ± 0.075"}, {"sequence": "TYEMRIHKRYIDLEAPV [RPS20]", "protein stability index": "2.51 ± 0.28"}, {"sequence": "TYKYPSLKGVDPKFRRN [RPL29]", "protein stability index": "3.12 ± 0.09"}, {"sequence": "TYSFIDNDRFNVVGKLI [YML103C/NUP188]", "protein stability index": "2.16 ± 0.04"}, {"sequence": "VAALALLFAINSYQPSP [SMC1]", "protein stability index": "2.42 ± 0.055"}, {"sequence": "VAFLDNDLGKFIPNKQL [RPN7]", "protein stability index": "2.88 ± 0.095"}, {"sequence": "VALPPGSNYNPYFPGGS [CYT1]", "protein stability index": "2.64 ± 0.036"}, {"sequence": "VCDLALRFGEGASGEER [PUP2]", "protein stability index": "3.1 ± 0.21"}, {"sequence": "VCKKADVDLHKRAGELT [RPS18A]", "protein stability index": "3.46 ± 0.11"}, {"sequence": "VDASPNDVTRRTVKNIL [CSL4]", "protein stability index": "3.3 ± 0.063"}]}]}
